Data published in PMC7241105 (bioRxiv, 2020).

Molecular target: SARS-CoV-2 receptor binding domain (RBD) (SARS-CoV-2, UniProt P0DTC2)
Assay: BLI

B1: CV43 (antibody, V domains shown)
VH: QVQLVESGGGVVQPGRSLRLSCAASGFTFSSYAMHWVRQAPGKGLEWVAVISYDGSNKYYADSVKGRFTISRDNSKNTLYLQMNSLRAEDTAVYYCARVTVVHFDYWGQGTLVTVSS
VL: NFMLTQPHSVSESPGKTVTISCTGSSGSIASNYVQWYQQRPGSAPTTVIYEDNQRPSGVPDRFSGSIDSSSNSASLTISGLKTEDEADYYCQSYDSSNWVFGGGTKLTVL
B1: binds.

B2: CV5 (antibody, V domains shown)
VH: QVQLVQSGAEVKKPGASVKVTCKASGYTFTSYYLHWVRQAPGQGLEWMGIINPSGGTTSYAQKFQGRVTMTRDTSTSTVYMELSSLRSEDTAVYYCARAGRRYSSSDDGAFDIWGQGTMVTVSS
VL: not shown
B2: binds.
